Experimental data: patent US12578343B2, “Selective ACKR3 modulators and uses thereof” (Luxembourg Institute of Health (LIH), priority 2019, dated 2026)

Columns and labels:
ACKR3 [1] = target: T1, ACKR3 (Homo sapiens, UniProt P25106); test: Opioid peptide library screening: β-arrestin-2 recruitment to ACKR3 in U87 cells; format: cell-based; design: expressed in transfected cells; host or cells: U87 cells, transient co-transfection of pNBe vectors; conditions: 5 μM
Description: (§1) In brief, 1.2×10^6 U87 cells were plated in 10 cm-culture dishes and 48 hours later co-transfected with pNBe vectors encoding GPCRs C-terminally tagged to SmBiT and human β-arrestin-1 or -2 or mini G proteins (mG, engineered GTPase domains of Gα subunits,) N-terminally fused to LgBiT. 48 hours post-transfection cells were harvested, incubated 25 minutes at 37° C. with Nano-Glo Live Cell substrate diluted 200-fold and distributed into white 96-well plates (5×10^4 cells per well). Ligand-induced, β-arrestin and mG recruitment to GPCRs was evaluated with a Mithras LB940 luminometer (Berthold Technologies) for 20 minutes. For concentration-response curves, the signal recorded with a saturating concentration of full agonist for each receptor was set as 100%.
Target sequence in this assay (P25106 whole entry, the tested form may be a part): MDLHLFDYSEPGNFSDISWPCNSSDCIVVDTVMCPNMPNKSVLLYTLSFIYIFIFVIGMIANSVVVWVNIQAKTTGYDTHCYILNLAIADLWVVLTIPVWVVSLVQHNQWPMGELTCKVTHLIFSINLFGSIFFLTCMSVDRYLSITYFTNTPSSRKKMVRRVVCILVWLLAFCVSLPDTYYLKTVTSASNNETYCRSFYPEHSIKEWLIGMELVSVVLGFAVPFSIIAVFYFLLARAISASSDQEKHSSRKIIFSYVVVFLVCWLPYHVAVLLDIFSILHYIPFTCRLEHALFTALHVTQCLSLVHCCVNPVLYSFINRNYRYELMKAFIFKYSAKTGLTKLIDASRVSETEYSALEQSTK
Target sequence in this assay (P32121 whole entry partner, the tested form may be a part): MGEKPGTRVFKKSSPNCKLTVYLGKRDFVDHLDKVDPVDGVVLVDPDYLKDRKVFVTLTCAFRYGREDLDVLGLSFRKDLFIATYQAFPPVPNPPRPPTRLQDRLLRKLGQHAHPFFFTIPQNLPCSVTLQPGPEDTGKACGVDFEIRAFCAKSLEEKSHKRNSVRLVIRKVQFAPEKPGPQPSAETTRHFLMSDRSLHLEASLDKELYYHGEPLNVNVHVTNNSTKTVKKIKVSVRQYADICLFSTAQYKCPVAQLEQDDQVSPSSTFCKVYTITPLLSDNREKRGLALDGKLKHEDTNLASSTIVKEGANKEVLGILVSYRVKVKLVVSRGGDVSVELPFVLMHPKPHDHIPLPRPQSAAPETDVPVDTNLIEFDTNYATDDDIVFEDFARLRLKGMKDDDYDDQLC

ACKR3 [2] = test: B-arrestin-1 | ACKR3 | EC50 (nM)
Text: Table printed on a drawing sheet, FIG. 1 (continued) H
Head of the field: B-arrestin-1 | ACKR3 | EC50 (nM)
The patent's description of the figure: FIG. 1 Opioid peptide library screening on ACKR3, hit confirmation and comparison with classical opioid receptors. (A) The ability of 58 compounds, including natural opioid peptides from the four opioid families, variants thereof and small molecule opioid receptor modulators, to induce β-arrestin-2 recruitment to ACKR3, CXCR4 and CXCR3 in U87 cells at a concentration of 5 μM. Positive control chemokines were used at a concentration of 300 nM. Results are expressed as fold change over vehicle-treated cells and presented as mean±S.D of two replicates (B-F) Comparison of potency and efficacy of ACKR3-activating peptides in inducing β-arrestin-1 recruitment to the opioid receptors MOR (B), DOR (C), KOR (D), NOP (E) and ACKR3 (F) in U87 cells. Results are expressed as percentage of indicated agonist response. […] Results from B—H are presented as mean±S.E.M (n ? 3).
Where the first naming reader finds the target: head: B-arrestin-1 | ACKR3 | EC50 (nM)

CXCR4 [3] = target: T2, CXCR4 (Homo sapiens, UniProt P61073); test: HTRF ERK1/2 phosphorylation, U87 cells stably expressing CXCR4; format: cell-based; conditions: between 2 and 120 minutes after stimulation
T2 construct: expressed in transfected cells; pcDNA3.1 transient for DMR
T2 sequence (P61073 whole entry): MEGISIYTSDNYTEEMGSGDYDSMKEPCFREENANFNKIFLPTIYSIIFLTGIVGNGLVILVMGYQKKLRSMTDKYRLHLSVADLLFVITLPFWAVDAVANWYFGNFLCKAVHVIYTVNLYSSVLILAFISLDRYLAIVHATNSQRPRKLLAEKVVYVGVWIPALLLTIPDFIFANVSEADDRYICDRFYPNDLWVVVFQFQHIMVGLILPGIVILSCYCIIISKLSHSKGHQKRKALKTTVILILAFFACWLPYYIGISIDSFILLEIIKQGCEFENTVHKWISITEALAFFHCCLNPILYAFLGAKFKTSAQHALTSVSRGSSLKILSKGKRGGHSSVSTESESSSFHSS
Description: 1.6 Homogeneous Time-Resolved Fluorescence (HTRF)-Based Extracellular Signal Regulated Kinases 1 and 2 (ERK1/2) Phosphorylation Assays
Homogeneous Time-Resolved Fluorescence (HTRF)-based phospho-ERK1/2 and total-ERK1/2 assays were performed using phospho-ERK1/2 (Thr202/Tyr204) and total-ERK1/2 cellular kits (Cisbio International). In short, for quantification of total and phosphorylated ERK1/2 protein, U87 cells stably expressing (or not) ACKR3 or CXCR4 were seeded at a density of 3.5×10^4 cells per well into 96-well poly-D-lysine (PDL)-coated microtiter plates (Sigma-Aldrich). After overnight incubation, cells were starved for 4 hours at 37° C. in serum-free medium. Cells were then stimulated for the indicated time intervals with chemokine or opioid ligands, respectively, before termination by replacement of supernatants with lysis buffer followed by 1.5 hours incubation on an orbital shaker. […] D2-labeled anti-total-ERK1/2 and Eu^3+-Cryptate-labelled anti-total-ERK1/2 antibodies were added for quantification of total-ERK1/2 abundance. Following an incubation time of at least 2 hours (phospho-ERK1/2) or 24 hours (total-ERK1/2), time-resolved FRET signals were measured using the Mithras LB 940 multimode reader (Berthold Technologies) equipped with 320 nm excitation filter and 620 nm (donor) and 665 nm (acceptor) emission filters.

CXCR4 [4] = target: T2, CXCR4; test: Dynamic mass redistribution (DMR), U87 cells expressing CXCR4; format: cell-based; conditions: 200 nM
Description: 1.5. Label-Free Dynamic Mass Redistribution (DMR) Assay
Dynamic mass redistribution (DMR) experiments were conducted using the Corning Epic (Corning) biosensor system as previously described in Schröder, R. et al. Deconvolution of complex G protein-coupled receptor signaling in live cells using dynamic mass redistribution measurements. Nat Biotechnol 28, 943-949 (2010) and Schröder, R. et al. Applying label-free dynamic mass redistribution technology to frame signaling of G protein-coupled receptors noninvasively in living cells. Nat Protoc. 6(11): 1748-1760 (2011). In brief, 6×10^5 U87 cells were seeded in 6-cm dishes. 24 hours later cells were transfected with pcDNA3.1-based expression plasmids coding for the respective chemokine (ACKR3, CXCR4) or opioid (KOR, NOP) receptors using polyethylenimine (PEI) reagent (Polysciences). 24 hours after transfection 1×10^4 cells per well were transferred to a 384-well Epic biosensor plate and incubated (37° C., 5% CO2) overnight. Cells were then washed twice with Hanks' balanced salt solution (HBSS) (Life Technologies) containing 20 mM HEPES (Life Technologies) and subsequently incubated in the DMR-reader for 1.5 hours to achieve temperature equilibration (37° C.). […] Alterations of ligand-induced DMR were monitored for at least 3000 seconds. Raw data were processed and analysed using GraphPad Prism 7.05 (GraphPad Inc).

[5] = target: T3, native or CXCR4-expressing U87 cells (Homo sapiens, UniProt P61073); test: Binding of fluorescently labelled LIH383 to native or CXCR4-expressing cells
T3 construct: expressed in transfected cells; pcDNA3.1 transient for DMR
T3 sequence (P61073 whole entry): as above

MOR = target: T4, MOR (Homo sapiens, UniProt P35372); format: cell-based
T4 construct: expressed in transfected cells; host or cells: U87 cells, transient co-transfection of pNBe vectors
T4 sequence (P35372 whole entry): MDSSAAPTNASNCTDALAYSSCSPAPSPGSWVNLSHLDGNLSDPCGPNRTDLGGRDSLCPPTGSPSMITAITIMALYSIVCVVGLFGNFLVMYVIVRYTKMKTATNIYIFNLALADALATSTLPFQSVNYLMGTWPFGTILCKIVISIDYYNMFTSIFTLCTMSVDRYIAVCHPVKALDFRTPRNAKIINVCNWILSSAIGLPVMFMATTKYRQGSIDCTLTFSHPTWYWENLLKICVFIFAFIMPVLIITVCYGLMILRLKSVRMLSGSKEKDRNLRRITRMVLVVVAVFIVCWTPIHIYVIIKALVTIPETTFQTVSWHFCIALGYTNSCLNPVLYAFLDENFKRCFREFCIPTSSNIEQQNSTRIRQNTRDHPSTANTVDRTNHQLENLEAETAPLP
Description: as §1

DOR = target: T5, DOR (Homo sapiens, UniProt P41143); test: β-arrestin-1 recruitment to DOR (NanoBiT, U87 cells); format: cell-based
T5 construct: expressed in transfected cells; host or cells: U87 cells, transient co-transfection of pNBe vectors
T5 sequence (P41143 whole entry): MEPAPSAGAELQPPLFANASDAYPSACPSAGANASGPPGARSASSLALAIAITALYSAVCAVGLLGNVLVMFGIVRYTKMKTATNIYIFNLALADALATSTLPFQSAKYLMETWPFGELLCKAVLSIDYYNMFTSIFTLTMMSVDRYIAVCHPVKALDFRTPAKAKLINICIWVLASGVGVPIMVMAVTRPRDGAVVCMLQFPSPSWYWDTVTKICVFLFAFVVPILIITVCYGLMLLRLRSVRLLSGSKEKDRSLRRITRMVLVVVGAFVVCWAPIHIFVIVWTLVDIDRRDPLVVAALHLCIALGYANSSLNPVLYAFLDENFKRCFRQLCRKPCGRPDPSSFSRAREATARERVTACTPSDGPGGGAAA
Description: as §1

KOR = KOR (Homo sapiens, UniProt P41145); test: β-arrestin-1 recruitment to KOR (NanoBiT, U87 cells); format: cell-based; design: expressed in transfected cells; host or cells: U87 cells, transient co-transfection of pNBe vectors
Sequence of KOR (P41145 whole entry): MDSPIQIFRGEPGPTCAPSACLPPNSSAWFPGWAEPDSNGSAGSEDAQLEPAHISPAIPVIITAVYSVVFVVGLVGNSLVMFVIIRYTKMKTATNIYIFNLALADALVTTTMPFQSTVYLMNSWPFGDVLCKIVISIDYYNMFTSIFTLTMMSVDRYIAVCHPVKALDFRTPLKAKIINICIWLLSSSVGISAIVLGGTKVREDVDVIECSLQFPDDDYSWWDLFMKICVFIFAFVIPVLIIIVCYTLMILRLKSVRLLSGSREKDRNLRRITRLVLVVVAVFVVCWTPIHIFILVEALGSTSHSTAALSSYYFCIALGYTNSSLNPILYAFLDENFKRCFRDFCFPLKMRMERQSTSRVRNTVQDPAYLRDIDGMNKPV
Description: as §1

ACKR3 [6] = target: T1, ACKR3; format: cell-based; design: expressed in transfected cells; host or cells: U87 cells, transient co-transfection of pNBe vectors; conditions: U87 cells
Target sequence in this assay (P25106 whole entry, the tested form may be a part): as the sequence (P25106 whole entry, the tested form may be a part) above
Target sequence in this assay (P49407 whole entry partner, the tested form may be a part): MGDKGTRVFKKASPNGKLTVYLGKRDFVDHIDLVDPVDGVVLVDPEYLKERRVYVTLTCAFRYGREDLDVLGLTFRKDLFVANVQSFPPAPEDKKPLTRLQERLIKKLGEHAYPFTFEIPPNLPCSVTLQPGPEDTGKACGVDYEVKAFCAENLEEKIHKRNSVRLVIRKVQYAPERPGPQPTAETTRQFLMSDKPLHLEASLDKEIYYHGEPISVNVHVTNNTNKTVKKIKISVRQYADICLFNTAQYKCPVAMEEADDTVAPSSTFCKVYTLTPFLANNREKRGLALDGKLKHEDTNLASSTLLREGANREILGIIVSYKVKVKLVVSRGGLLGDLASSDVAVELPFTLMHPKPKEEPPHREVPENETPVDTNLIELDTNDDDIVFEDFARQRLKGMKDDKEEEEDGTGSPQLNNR

smNPCs = test: Uptake of labelled dynorphin A (1-13) by smNPCs, imaging flow cytometry; format: cell-based, human
Description: U87 cells derived from human brain glioblastoma were obtained through the NIH AIDS Reagent Program from Dr. Deng and Dr. Littman. U87 stably expressing ACKR3 and CXCR4 were generated as previously described in Szpakowska, M. et al. Different contributions of chemokine N-terminal features attest to a different ligand binding mode and a bias towards activation of ACKR3/CXCR7 compared with CXCR4 and CXCR3. Br J Pharmacol 175, 1419-1438 (2018). U87 cells were grown in Dulbecco's modified Eagle medium (DMEM) supplemented with 15% foetal bovine serum and penicillin/streptomycin (100 Units/ml and 100 μg/ml). U87-ACKR3 and U87-CXCR4 were maintained under puromycin (1 μg/ml) selective pressure. smNPCs (small molecule neural precursor cells) derived from a healthy donor (C1-1) whose informed consent was obtained, were grown on Geltrex™-coated surface in N2B27 medium supplemented with 0.5 μM Purmorphamine, 3 μM CHIR 99021 and 150 μM ascorbic acid. N2B27 medium consisted of DMEM/F12 and NeuroBasal medium 50:50 with 0.5% N2 supplement, 1% B27 supplement lacking vitamin A, 1% GlutaMAX and 1% penicilin/streptomycin. Medium was renewed every other day.
Cells were distributed into 96-well plates (2×10^5 cells/well in Opti-MEM for U87 and U87-ACKR3 and 3×10^5 cells/well in N2B27 medium for smNPCs). […] For comparison of labelled opioid peptide-uptake by ACKR3 or classical opioid receptors, 1.2×10^6 U87 cells were seeded in 10-cm dishes and transfected 48 hours later with 4 μg pcDNA3.1 plasmid encoding ACKR3 or KOR, MOR or NOP. 48 hours post transfection, cells were harvested and treated as described above. Dead cells were excluded using Zombie NIR or Zombie Green viability dye (BioLegend) for FAM-labelled peptides and Cy5-labelled peptides, respectively. Images of 1×10^4 in-focus, living single cells were acquired with an ImageStream MKII imaging flow cytometer (Amnis) using 40× magnification (60× magnification for smNPCs). Samples were analysed using Ideas6.2 software. The number of spots per cell was determined using a mask-based software wizard.

ACKR3 [7] = target: T1, ACKR3; test: ACKR3-mediated depletion of extracellular dynorphin A monitored by its ability to activate KOR (U87-ACKR3 cells); format: cell-based; design: expressed in transfected cells; for the receptor comparison in the uptake assay, transient pcDNA3.1); conditions: pre-treatment of ACKR3-expressing cells, saturating concentration
Description: as §1
Target sequence in this assay (P25106 whole entry, the tested form may be a part): as the sequence (P25106 whole entry, the tested form may be a part) above

CXCR3 = test: β-arrestin recruitment to CXCR3 (NanoBiT); format: cell-based, human; conditions: saturating concentration (3 μM)
Sequence of CXCR3 (P49682 5-368 limits assumed): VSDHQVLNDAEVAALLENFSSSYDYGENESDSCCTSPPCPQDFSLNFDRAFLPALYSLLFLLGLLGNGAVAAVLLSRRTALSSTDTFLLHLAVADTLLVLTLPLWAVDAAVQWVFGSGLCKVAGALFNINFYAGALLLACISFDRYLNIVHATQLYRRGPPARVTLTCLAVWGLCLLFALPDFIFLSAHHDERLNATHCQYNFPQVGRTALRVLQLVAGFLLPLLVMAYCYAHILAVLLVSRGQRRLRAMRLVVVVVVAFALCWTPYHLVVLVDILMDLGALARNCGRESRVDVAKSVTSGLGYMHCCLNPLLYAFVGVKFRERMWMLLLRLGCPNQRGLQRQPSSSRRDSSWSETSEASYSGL
Description: as §1

CX3CR1 = target: T6, CX3CR1 (Homo sapiens, UniProt P49238); test: β-arrestin recruitment to CX3CR1 (NanoBiT); format: cell-based; conditions: saturating concentration (3 μM)
T6 construct: expressed in transfected cells; host or cells: U87 cells, transient co-transfection of pNBe vectors
T6 sequence (P49238 1-355): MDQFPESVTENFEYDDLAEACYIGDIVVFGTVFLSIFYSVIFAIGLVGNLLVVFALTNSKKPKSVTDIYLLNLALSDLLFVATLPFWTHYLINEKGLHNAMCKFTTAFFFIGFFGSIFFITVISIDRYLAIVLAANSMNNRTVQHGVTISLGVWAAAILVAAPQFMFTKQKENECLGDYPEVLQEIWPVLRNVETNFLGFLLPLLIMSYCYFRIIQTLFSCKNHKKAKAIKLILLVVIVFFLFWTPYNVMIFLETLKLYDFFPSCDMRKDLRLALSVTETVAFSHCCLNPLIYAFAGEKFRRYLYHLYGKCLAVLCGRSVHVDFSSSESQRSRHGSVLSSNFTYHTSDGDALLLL
Description: as §1

CCR3 = target: T7, CCR3 (Homo sapiens, UniProt P51677); test: β-arrestin recruitment to CCR3 (NanoBiT); format: cell-based; conditions: saturating concentration (3 μM)
T7 construct: expressed in transfected cells; host or cells: U87 cells, transient co-transfection of pNBe vectors
T7 sequence (P51677 1-355): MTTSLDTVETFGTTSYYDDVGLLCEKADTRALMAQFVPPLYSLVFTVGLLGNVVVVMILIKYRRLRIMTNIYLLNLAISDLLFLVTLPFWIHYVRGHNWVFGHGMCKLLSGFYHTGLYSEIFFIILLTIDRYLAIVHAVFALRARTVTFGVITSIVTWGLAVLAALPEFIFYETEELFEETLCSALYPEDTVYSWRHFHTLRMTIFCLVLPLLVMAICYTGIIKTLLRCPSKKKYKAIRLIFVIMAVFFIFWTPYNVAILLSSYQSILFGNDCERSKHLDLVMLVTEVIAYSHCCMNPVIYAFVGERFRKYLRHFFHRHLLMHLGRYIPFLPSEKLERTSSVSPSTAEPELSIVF
Description: as §1

ACKR3 [8] = target: T1, ACKR3; test: Uptake of fluorescently labelled opioid peptides by ACKR3-expressing U87 cells, imaging flow cytometry; format: cell-based; design: expressed in transfected cells; for the receptor comparison in the uptake assay, transient pcDNA3.1); conditions: 40 minutes at 37° C.
Target sequence in this assay (P25106 whole entry, the tested form may be a part): as the sequence (P25106 whole entry, the tested form may be a part) above
Description: Visualization of Fluorescently Labelled Opioid Peptides Uptake by Imagestream

Substance: BAM18: opioid peptide previously reported as ACKR3 ligand (YGGFMRRVGRPEWWMDYQ)
- ability to induce β-arrestin-2 recruitment to ACKR3 (library screening) (ACKR3 [1]): capable of inducing β-arrestin-2 recruitment to ACKR3

Substance: BAM22: proenkephalin-derived opioid peptide
- EC50 (ACKR3 [2]): 23.5 nM

Substance: CXCL12: C—X—C motif chemokine 12, endogenous ACKR3 chemokine ligand
- ERK phosphorylation, cells stably expressing CXCR4 (CXCR4 [3]): strong increase in ERK phosphorylation
- DMR response of CXCR4-expressing U87 cells (CXCR4 [4]): strong DMR

Substance: Cy-5-labelled LIH383: fluorescently labelled LIH383 (LIH383-Cy5)
- binding to native or CXCR4-expressing U87 cells [5]: not to native or CXCR4-expressing U87 cells

Substance: FGGFMRRV [adrenorphin Y1F variant]
- reduction of potency towards MOR as compared to WT adrenorphin (MOR): over 100 fold
- reduction of potency towards DOR as compared to WT adrenorphin (DOR): over 100 fold
- reduction of potency towards KOR as compared to WT adrenorphin (KOR): over 100 fold
- impact of adrenorphin modification on activity towards ACKR3 (versus adrenorphin), in words (ACKR3 [6]; β-arrestin-1 recruitment): tenfold improvement in potency

Substance: MRRKFGGF [LIH383 ctrl, control peptide consisting of the 8 amino acids building LIH383 in a different arrangement, reference compound]
- effect of pretreatment on uptake of labelled dynorphin A (1-13) by smNPCs (smNPCs; 3 μM, 15 minutes pre-treatment): not
- reversal of the ACKR3-mediated impairment of dynorphin A potency to activate KOR by pre-treatment (ACKR3 [7]): not

Substance: big dynorphin: the precursor of dynorphin A and B
- β-arrestin recruitment to CXCR3 (CXCR3): faint induction of β-arrestin recruitment
- β-arrestin recruitment to CX3CR1 (CX3CR1): faint induction of β-arrestin recruitment
- β-arrestin recruitment to CCR3 (CCR3): faint induction of β-arrestin recruitment
- β-arrestin recruitment to ACKR3: agonist activity/potency in words (ACKR3 [6]): at low concentrations comparable to their activity on the classical opioid receptors

Substance: dynorphin A 1-13: endogenous opioid peptide, fragment of dynorphin A (YGGFLRRIRPKLK) [reference compound]
- uptake of the fluorescently labelled peptide by ACKR3-expressing cells (also versus classical opioid receptor) (ACKR3 [8]): more efficient compared to that of KOR
- accumulation of the labelled peptide by smNPCs (smNPCs; 250 nM, 40 minutes at 37° C.): able to accumulate
